Assay results taken from patent US20030186868A1 (Regeneron, published 2003).
One block for each binder: values may come before it.

Tests used:
[1] = molecular target: T1, VEGFR-2/NP-1 co-receptor complex (cells co-expressing hVEGFR-2 and hNP-1) (human, UniProt P35968 20-1356; O14786 22-923); experiment: 125I-VEGF165 competition on COS-1 cells and affinity labeling of HUVEC
T1 construct: whole, on cells; All numbers printed for cells co-expressing both receptors are put on this molecule; also called R2 + NP1 Cells; VEGFR-2/NP-1 complex
T1 sequence (P35968 20-1356, chain 1 of 2): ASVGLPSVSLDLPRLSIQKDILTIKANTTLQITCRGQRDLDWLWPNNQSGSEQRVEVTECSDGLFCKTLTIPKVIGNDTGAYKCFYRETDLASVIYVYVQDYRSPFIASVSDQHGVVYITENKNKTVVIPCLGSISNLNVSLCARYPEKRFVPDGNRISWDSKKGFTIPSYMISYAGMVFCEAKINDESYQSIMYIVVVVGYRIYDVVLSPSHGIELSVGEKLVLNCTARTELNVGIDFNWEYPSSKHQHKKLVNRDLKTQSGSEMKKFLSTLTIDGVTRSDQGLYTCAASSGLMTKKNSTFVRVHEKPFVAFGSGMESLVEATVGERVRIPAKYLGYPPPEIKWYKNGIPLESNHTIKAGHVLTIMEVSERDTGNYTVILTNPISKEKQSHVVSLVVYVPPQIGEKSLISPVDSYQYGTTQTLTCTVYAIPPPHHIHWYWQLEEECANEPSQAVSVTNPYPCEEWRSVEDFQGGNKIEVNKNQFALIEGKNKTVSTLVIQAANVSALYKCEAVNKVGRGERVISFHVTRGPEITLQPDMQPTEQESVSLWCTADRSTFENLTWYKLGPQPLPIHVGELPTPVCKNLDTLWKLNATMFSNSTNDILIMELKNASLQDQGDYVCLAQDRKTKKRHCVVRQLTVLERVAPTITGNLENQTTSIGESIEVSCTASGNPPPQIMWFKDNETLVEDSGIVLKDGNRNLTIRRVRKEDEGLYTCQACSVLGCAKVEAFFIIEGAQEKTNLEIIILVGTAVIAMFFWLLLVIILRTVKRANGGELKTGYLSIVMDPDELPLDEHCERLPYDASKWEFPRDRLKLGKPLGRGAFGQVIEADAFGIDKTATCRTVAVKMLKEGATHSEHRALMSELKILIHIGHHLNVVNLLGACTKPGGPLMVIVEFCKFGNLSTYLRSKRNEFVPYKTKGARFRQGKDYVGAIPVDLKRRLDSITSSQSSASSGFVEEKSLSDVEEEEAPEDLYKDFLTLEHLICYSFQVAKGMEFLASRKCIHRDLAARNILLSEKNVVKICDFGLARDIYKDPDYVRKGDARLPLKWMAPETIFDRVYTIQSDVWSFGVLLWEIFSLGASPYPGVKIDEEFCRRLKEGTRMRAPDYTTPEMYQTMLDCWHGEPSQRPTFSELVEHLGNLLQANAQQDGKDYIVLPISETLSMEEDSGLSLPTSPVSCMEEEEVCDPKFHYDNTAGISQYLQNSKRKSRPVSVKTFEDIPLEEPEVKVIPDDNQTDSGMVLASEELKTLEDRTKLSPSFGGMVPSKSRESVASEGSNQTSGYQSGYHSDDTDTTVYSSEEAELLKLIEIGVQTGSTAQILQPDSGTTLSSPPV
T1 sequence (O14786 22-923, chain 2 of 2): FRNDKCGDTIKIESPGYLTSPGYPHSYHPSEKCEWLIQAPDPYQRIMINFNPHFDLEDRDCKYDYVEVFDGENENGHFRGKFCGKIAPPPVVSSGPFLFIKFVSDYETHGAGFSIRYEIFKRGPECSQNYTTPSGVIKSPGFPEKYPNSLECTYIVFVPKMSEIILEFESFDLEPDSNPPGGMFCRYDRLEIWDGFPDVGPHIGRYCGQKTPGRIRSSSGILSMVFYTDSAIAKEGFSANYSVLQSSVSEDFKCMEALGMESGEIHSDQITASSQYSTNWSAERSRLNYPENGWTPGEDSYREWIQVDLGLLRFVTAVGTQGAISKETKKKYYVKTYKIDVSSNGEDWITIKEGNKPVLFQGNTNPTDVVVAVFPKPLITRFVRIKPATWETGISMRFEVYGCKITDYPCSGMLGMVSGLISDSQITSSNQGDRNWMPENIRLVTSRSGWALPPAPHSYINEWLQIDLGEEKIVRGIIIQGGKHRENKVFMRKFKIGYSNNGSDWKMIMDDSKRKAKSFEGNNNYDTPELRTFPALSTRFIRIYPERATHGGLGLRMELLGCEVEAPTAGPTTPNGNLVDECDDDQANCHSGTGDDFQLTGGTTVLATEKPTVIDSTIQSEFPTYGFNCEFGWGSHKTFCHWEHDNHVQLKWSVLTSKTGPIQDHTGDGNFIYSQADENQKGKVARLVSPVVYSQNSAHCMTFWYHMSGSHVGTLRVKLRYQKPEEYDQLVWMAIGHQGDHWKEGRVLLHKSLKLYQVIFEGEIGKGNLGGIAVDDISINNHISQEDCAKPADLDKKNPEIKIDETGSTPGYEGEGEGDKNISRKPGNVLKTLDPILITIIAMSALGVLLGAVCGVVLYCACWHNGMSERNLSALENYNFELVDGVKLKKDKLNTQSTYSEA

[2] = molecular target: T2, human vascular endothelial growth factor receptor-2 (hVEGFR-2) (human, UniProt P35968 20-1356); experiment: 125I-VEGF165 competition, whole COS-1 cells
T2 construct: whole, on cells; also called flk-1; FLK-1
T2 sequence (P35968 20-1356): as the sequence (P35968 20-1356, chain 1 of 2) above
Protocol: Cells are plated the day before experimentation at 200,000 cells per well in twelve well tissue culture plates (VWR) in 1 ml of growth medium specific for each cell type. On the day of experimentation, the cells were pre-equilibrated at 4° C. for 30 to 60 minutes in binding buffer (0.2% BSA, Sigma; 25 mM Hepes, Gibco; MEM, Gibco). […] The binding reaction is allowed to reach equilibrium for four hours at 4° C. with gentle agitation.
Unbound ligand is then removed by quickly washing three times with 5 ml ice cold BSA-free binding buffer (MEM, Gibco, 25 mM Hepes, Gibco). Cells are lysed by the addition of 250 μl of RIPS Buffer (previously described), and the lysed cells are transferred to 12×75 mm test tubes and counted using a gamma counter. Generation of competition curves and IC₅₀ values are performed using the Prism software package (Graphpad Software Inc., San Diego, Calif.).

[3] = molecular target: T1, VEGFR-2/NP-1 co-receptor complex (cells …); experiment: 125I-VEGF165 affinity labeling of HUVEC, VEGFR-2 immunoprecipitation, 100 µM peptide (FIG. 10B)
Protocol: (§1) The crosslinker is removed with a single, ice cold, large volume wash (15 ml DPBS, Gibco). The cells are then lysed using RIP buffer (20 mM Tris HCl, pH 7.4; 100 mM NaCl; 1 mM EDTA; 10 mM NaI; 0.5% IGEPAL CA-630; 0.5% Na-deoxycholate; 1% BSA; all from Sigma). The lysate is then transferred to 1.5 ml conical tubes and centrifuged at 13,000×g to pellet the cellular debris. […] The precipitation tube is then incubated overnight at 4° C. on a nurator. The following morning the beads are washed three times in TNEN buffer (20 mM Tris-HCl pH 7.4; 100 mM NaCl; and 0.5% IGEPAL CA-630, all from Sigma), and heated for two minutes at 100° C. in 25 μl of 1×sample loading dye (5′-3′). The samples are then centrifuged to separate the beads from the sample buffer, and 20 μl of the sample buffer is loaded onto 6% SDS-PAGE gels (Novex). The gels are run at 35 mA for approximately 70 minutes, and then equilibrated in a drying buffer (10% acetic acid; 10% methanol, 80% H₂O) for 15 minutes and dried on a gel drier. The dried gels are then exposed to a phosphor screen overnight and developed using a Storm system (Molecular Dynamics).
(§2) Further amino terminal deletions were conducted.

[4] = molecular target: T1, VEGFR-2/NP-1 co-receptor complex (cells …); experiment: 125I-VEGF165 affinity labeling of HUVEC, VEGFR-2 immunoprecipitation, 100 µM peptide (FIG. 10A)
Protocol: as §1, §2

binding result [1]: binds
binding result [2]: no binding
Binder: RREKQRPCDKPRR [P6V8-9N]

binding result [3]: binds
Binder: KGRGKRRREKQRPSDKPR [P6V8-3NCS-1C]

binding result [4]: binds
Binder: RRREKQRPCDKPRR (also called PGV8-8N) [P6V8-8N]
